From PMC5618221

Tests used:
[1] = target: recombinant Hbl L1 (haemolysin BL component L1) (Bacillus cereus strain F837/76); experiment: SPR; BIACORE 3000; rHbl L1 amine-coupled to CM5 chip (560 RU); rHbl L2 or B injected 7.8 nM to 2 uM at 30 uL/min, 20 °C, in PBS, 1 mM DTT, 0.005% Tween 20; KD from steady state, one-site model, mean of three (L2) or four (B) experiments; L1 + B did not reach full saturation at lower concentrations, KD likely slightly underestimated
[2] = target: Hbl B in culture supernatant of B. cereus strain MHI 1532 (Bacillus cereus strain MHI 1532 (endogenous in culture supernatant)) (UniProt P80172); experiment: co-IP
[3] = target: recombinant Hbl B (haemolysin BL binding component B) (Bacillus cereus strain F837/76) (UniProt P80172); experiment: SPR; BIACORE 3000; rHbl B amine-coupled to CM5 chip (500 RU); rHbl L2 injected 31.2 nM to 4 uM at 30 uL/min, 20 °C, in PBS, 1 mM DTT, 0.005% Tween 20; KD from steady state, mean of four experiments

Substance | Kd [1] [nM] | percent in elution fraction [2] [%] | percent in sample flow-through [2] [%] | percent in wash fraction [2] [%] | Kd [3] [nM]
recombinant Hbl B (haemolysin BL binding component B) (from UniProt P80172 32-375) (natural protein) | 470 |  |  |  | 
Hbl L1 in culture supernatant of B. cereus strain MHI 1532 (natural protein) |  | 180 | < 5 | < 5 | 
Hbl L2 in culture supernatant of B. cereus strain MHI 1532 (natural protein) |  | 29 | 51 | 20 | 
recombinant Hbl L2 (haemolysin BL component L2) (natural protein) | 150 |  |  |  | 3400
